Biological target: oncofetal fibronectin (human) (UniProt P02751)
Assay: lateral flow sandwich; FDC-6 blue latex conjugate and immobilised goat anti-fibronectin; TLiIQ reflectance reader
Details: scale: reflectance signal

Chain of UniProt P02751 (P02751 32-2477): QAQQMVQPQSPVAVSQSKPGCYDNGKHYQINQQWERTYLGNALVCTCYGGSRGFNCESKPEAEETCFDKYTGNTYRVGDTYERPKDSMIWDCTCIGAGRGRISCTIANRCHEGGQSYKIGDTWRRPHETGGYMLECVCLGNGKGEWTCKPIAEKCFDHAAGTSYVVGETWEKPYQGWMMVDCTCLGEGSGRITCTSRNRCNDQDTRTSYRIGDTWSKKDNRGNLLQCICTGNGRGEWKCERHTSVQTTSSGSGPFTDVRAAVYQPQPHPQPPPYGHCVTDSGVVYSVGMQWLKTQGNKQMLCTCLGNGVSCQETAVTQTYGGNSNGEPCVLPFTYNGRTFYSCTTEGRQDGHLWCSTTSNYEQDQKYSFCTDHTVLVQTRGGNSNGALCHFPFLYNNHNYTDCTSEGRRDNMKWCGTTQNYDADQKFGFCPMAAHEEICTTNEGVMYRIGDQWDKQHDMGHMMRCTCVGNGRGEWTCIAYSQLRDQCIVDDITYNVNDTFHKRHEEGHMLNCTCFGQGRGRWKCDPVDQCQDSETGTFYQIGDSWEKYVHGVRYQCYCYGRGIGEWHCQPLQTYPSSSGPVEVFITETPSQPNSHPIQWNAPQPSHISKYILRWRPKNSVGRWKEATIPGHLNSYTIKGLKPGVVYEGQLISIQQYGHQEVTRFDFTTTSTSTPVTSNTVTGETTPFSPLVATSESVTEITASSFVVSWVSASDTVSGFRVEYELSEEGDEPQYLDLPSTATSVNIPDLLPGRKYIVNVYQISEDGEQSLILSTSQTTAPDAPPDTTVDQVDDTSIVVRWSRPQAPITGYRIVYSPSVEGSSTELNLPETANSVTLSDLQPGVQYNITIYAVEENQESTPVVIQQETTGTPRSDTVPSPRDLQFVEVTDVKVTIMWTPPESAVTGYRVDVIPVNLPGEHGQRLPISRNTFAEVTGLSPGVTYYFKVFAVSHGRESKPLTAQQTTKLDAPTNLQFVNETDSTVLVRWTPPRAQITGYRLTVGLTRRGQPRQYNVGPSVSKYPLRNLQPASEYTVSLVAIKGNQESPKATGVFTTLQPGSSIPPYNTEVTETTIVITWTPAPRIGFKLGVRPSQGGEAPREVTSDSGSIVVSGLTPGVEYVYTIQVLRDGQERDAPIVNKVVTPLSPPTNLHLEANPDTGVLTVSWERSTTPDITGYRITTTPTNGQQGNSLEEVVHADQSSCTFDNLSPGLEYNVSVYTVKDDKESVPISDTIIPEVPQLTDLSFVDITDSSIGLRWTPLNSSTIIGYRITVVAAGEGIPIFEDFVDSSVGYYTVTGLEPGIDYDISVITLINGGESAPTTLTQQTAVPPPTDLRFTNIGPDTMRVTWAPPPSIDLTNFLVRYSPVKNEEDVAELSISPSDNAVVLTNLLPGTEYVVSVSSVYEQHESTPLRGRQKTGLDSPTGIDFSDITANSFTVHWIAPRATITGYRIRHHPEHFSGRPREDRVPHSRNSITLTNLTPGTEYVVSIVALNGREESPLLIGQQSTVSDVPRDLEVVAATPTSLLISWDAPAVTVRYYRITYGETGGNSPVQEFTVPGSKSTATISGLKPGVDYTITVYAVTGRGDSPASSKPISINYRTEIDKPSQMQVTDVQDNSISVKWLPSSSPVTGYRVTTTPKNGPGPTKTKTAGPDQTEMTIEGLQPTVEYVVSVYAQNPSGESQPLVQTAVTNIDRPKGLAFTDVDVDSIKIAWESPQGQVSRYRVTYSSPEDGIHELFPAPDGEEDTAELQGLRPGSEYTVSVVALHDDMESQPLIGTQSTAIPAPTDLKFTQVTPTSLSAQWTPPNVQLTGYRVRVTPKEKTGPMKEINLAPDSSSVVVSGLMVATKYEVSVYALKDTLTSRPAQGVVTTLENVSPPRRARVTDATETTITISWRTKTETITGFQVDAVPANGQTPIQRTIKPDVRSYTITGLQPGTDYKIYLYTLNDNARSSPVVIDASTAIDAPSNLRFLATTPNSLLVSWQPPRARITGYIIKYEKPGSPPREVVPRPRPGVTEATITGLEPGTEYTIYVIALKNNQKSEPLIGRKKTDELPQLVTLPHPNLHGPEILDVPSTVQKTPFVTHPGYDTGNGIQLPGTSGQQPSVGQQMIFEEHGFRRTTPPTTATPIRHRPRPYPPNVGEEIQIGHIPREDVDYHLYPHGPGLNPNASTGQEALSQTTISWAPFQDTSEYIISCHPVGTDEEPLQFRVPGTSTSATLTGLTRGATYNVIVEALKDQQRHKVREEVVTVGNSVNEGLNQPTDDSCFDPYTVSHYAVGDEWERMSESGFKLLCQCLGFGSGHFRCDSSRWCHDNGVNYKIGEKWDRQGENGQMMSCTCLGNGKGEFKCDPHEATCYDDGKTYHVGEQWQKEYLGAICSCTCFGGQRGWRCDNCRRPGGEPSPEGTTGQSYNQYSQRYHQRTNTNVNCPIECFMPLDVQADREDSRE

monoclonal antibody FDC-6, produced by the hybridoma ATCC HB 9018
reflectance signal: 0.315

From patent publication US20060024723A1
